Assay: soluble on expression in E. coli; label from the status in PepcDB or PDB records

Row | Sequence | soluble on expression in E. coli
1 | MGSDKIHHHHHHMGQRIPVTLGNIAPLSLRPFQPGRIALVCEGGGQRGIFTAGVLDEFMRAQFNPFDLYLGTSAGAQNLSAFICNQPGYARKVIMRYTTKREFFDPLRFVRGGNLIDLDWLVEATASQMPLQMDTAARLFDSGKSFYMCACRQDDYAPNYFLPTKQNWLDVIRASSAIPGFYRSGVSLEGINYLDGGISDAIPVKEAARQGAKTLVVIRTVPSQMYYTPQWFKRMERWLGDSSLQPLVNLVQHHETSYRDIQQFIEKPPGKLRISEIYPPKPLHSIALGSRIPALREDYKLGRLCGRYFLATVGKLLTEKAPLTRHLVPVVTPESIVIPPAPVANDTLVAEVSDAPQANDPTFNNEDLA | not soluble
2 | MITILGAGKVGMATAVMLMMRGYDDLLLIARTPGKPQGEALDLAHAAAELGVDIRISGSNSYEDMRGSDIVLVTAGIGRKPGMTREQLLEANANTMADLAEKIKAYAKDAIVVITTNPVDAMTYVMYKKTGFPRERVIGFSGILDSARMAYYISQKLGVSFKSVNAIVLGMHGQKMFPVPRLSSVGGVPLEHLMSKEEIEEVVSETVNAGAKITELRGYSSNYGPAAGLVLTVEAIKRDSKRIYPYSLYLQGEYGYNDIVAEVPAVIGKSGIERIIELPLTEDEKRKFDEAVQAVKKLVETLPPQLRE | soluble
3 | MTKLHDISEHEKAIDFSIYLDSLPQYQHLASQDESHRHRALGIYSDFLSEENKSKRAALQNYKNYISLTERDPNQLAYPELQETRIDAVFSPDFMGSFAKSNGRHEETPMDGPGGYDMRSYLPYQTAPSGSLGNISTASSSCSSPPGTPAPSGKGRSPQAGGKMTSSGKGKKRLDKDSDEYRQRRERNNLAVRKSRDKAKMRNLETQHKVLELAAENDRLQKRVEQLSRELATLRNLLSATGQC | not soluble
4 | GMMYTNDNRIVMTLDAGGTNFVFSAIQGGKEIADPVVLPACADCLDKCLGNLVEGFKAIQAGLPEAPVAISFAFPGPADYQAGIIGDLPNFPSFRGGVALGPFLEDIFGIPVFINNDGSLFAYGEALTGVLPEINRRLREAGSTKRYKNLLGVTLGTGFGAGVVIDGELLRGDNAAGGYVWCLRNKKYPEYIVEESVSIRAVMRVYAERSGDAGARTPKEIFEIAEGIRPGNREAAIAAFEELGEMAGDALASAITLIDGLIVIGGGLSGASKYILPVLLKEMNAQTGMMDGARFGRLQKEVYDLDEEKSFAGFARGEAVEVLVPGTNRKVGYDPCKRIGVTFSKQGANRSIAMGAYVFALNHLSK | soluble
5 | MGSDKIHHHHHHMDTQQLKVVSQQVQEQANFPPEFNRLLNELPDEVKHRIFPHLELVQLELGDVVCEAGSKVRYVYFPLNSIISLLYVMENGASAEIAVVGNDGMVGVALFMGGESTTSRAIVQSAGVAYRLFGQRLKDEFNRHGALLHLLLRYSQILLTQMAQTAVCNRHHSIEQQLCRWLLLSIDRLPDDRVMMTQELIANMLGVRREGVTDAAGKLQRIGIINYSRGNIEVLDRKLLEQTCCECYSVVKQESERLMPLKKFTKK | not soluble
6 | MYHWFALRSVPLVGNVLYRRLLDRFGSPEAVFRASDAELASVRGVSSAVAASIRGHDPRAFAESECERVRRAGVRIVTIRDPDYPPLLLQIADPPPYLYVKGDPTGLEPAVAVVGSRRATVYGRTVTARLAEDLARRGVAVVSGMARGIDTAAHQGALAGEGRTVGVLGCGIDVVYPPENRALFARVADRGALVSEFPLGMGPLAENFPRRNRIISGMCRGVLVVEAAERSGSLITAQMALDQGRDVFAIPGNITSSGSSGTNRLIREGAKLVAGVEDILEELVPRAAAAVAVAPPLPPLPAGEAALMAMFGADPLHIDEIIAKSALTVGEVSAMLLRLELKGVVTQLPGKFFHAN | not soluble
7 | DPLQILGQLTGQLEQQQTAPSGTSAKAPPANDQQAEFVASILGDTEDTWKALFAQAGKQYRDPKLVLFSGQVNSACGFASAAVGPFYCPADQRVYLDMSFFREMETRFAAAGDFAQAYVIAHEIGHHVQTLLGVSAKVDAARRAGQRMEGDNGLLVRQELQADCLAGVWAYQAQKRLNWLEPGDVEEALNAANAIGDDRLQQQGRGRVVPDSFTHGTSAQRVRWFKIGFAEGEVNRCDTF | not soluble
8 | QAMFERFTDRARRVIVLAQEEARMLNHNYIGTEHILLGLIHEGEGVAAKALESMGISLDAVRQEVEEIIGQGSQPTTGHIPFTPRAKKVLELSLREGLQMGHKYIGTEFLLLGLIREGEGVAAQVLVKLGADLPRVRQQVIQLLSG | soluble
9 | MQTPKPTLELLTCDAAYRENPTALFHQVCGDRPATLLLESADIDSKDDLKSLLLVDSALRITALGDTVTIQALSDNGASLLPLLDTALPAGVENDVLPAGRVLRFPPVSPLLDENARLCSLSVFDAFRLLQGVVNIPTQEREAMFFGGLFAYDLVAGFEALPHLEAGNNCPDYCFYLAETLMVIDHQKKSTRIQASLFTASDREKQRLNARLAYLSQQLTQPAPPLPVTPVPDMRCECNQSDDAFGAVVRQLQKAIRAGEIFQVVPSRRFSLPCPSPLAAYYVLKKSNPSPYMFFMQDNDFTLFGASPESSLKYDAASRQIEIYPIAGTRPRGRRADGTLDRDLDSRIELDMRTDHKELSEHLMLVDLARNDLARICTPGSRYVADLTKVDRYSYVMHLVSRVVGELRHDLDALHAYRACMNMGTLSGAPKVRAMQLIADAEGQRRGSYGGAVGYFTAHGDLDTCIVIRSALVENGIATVQAGAGIVLDSVPQSEADETRNKARAVLRAIATAHHAQETF | soluble
10 | MIRLAPLITADVDTTTLPGGKASDAAQDFLALLSEALAGETTTDKAAPQLLVATDKPTAKGEPLVSDILSDAQQADLLIPVDETPPVINDEQSTLTPLTTAQTMTLAAVADKNTTKDEKADDLNEDVTASLSALFAMLPGFDNTPKVTDAPSTVLPAEKPTLFTKLTSAQLTTAQPDDAPGTPAQPLTPLVAEAQSKAEVISTPSPVTADASPLITPHQTQPLPTVAAPVLSAPLGSHEWQQSLSQHISLFTRQGQQSAELRLHPQDLGEVQISLKVDDNQAQIQMISPHQHVRAALEAALPVLRTQLAESGIQLGQSNISGESFSGQQQAASQQQQSQRTANHEPLAGEDDDTLPVPVSLQGRVTGNSGVDIFA | soluble
11 | MSFRVSASSSVKPEKDIRIGLLGASGYTGAEIVRLLANHPHFQVTLMTADRKAGQSMESVFPHLRAQKLPTLVSVKDADFSTVDAVFCCLPHGTTQEIIKELPTALKIVDLSADFRLRNIAEYEEWYGQPHKAVELQKEVVYGLTEILREDIKKARLVANPGCYPTTIQLPLVPLLKANLIKHENIIIDAKSGVSGAGRGAKEANLYSEIAEGISSYGVTRHRHVPEIEQGLSDVAQSKVTVSFTPHLMPMIRGMQSTIYVEMAPGVRTEDLHQQLKTSYEDEEFVKVLDEGVVPRTHNVRGSNYCHMSVFPDRIPGRAIIISVIDNLVKGASGQALQNLNIMLGYPETTGLLHQPLFP | soluble
12 | MGHHHHHHSHMANSAGSMANSAGSMPSSPLRVAVVCSSNQNRSMEAHNILSKRGFSVRSFGTGTHVKLPGPAPDKPNVYDFKTTYDQMYNDLLRKDKELYTQNGILHMLDRNKRIKPRPERFQNCKDLFDLILTCEERVYDQVVEDLNSREQETCQPVHVVNVDIQDNHEEATLGAFLICELCQCIQHTEDMENEIDELLQEFEEKSGRTFLHTVCFY | soluble
13 | MGHHHHHHSHMVPSSAETGGTNYLAPGGLSDSQLLLEPGDRSHWCVVAYWEEKTRVGRLYCVQEPSLDIFYDLPQGNGFCLGQLNSDNKSQLVQKVRSKIGCGIQLTREVDGVWVYNRSSYPIFIKSATLDNPDSRTLLVHKVFPGFSIKAFDYEKAYSLQRPNDHEFMQQPWTGFTVQISFVKGWGQCYTRQFISSCPCWLEVIFNSR | not soluble
14 | AHHHHHHGSKAVTFPVPWEYLKRIFEGKNVFVKPATLRVEEGMKVIFYASRENQGWHGEAEVERVEYYTSVEEIIKKYRDKLFLTPEELRRYERDRARWDSGRRKRPWMVLVLRNIEKYPRVVKPKKFIVVSGRYVDEKEYEEIRRSTS | not soluble
15 | MLFTVTAPKEVYTVDVGSSVSLECDFDRRECTELEGIRASLQKVENDTSLQSERATLLEEQLPLGKALFHIPSVQVRDSGQYRCLVICGAAWDYKYLTVKVKASYMRIDTRILEVPGTGEVQLTCQARGYPLAEVSWQNVSVPANTSHIRTPEGLYQVTSVLRLKPQPSRNFSCMFWNAHMKELTSAIIDPLSRMEPKVPRT | soluble
16 | MKITVFGATGNVGNRVITEALLRGHEITAVLRNNARANEFDSSVKVVIGHADNVDDVVKWSDGQDLIISATRPPQGLESQLVDTAKALLSGLAQTKVRLLLVGGAASLTVPNSNGMLVVDDTDLVPTAWRDIALACLAQHKLCQENESVDWSYISPPAVIVPGERTGIFRTGSDELLVDEQGQSTISLEDFAIALLDEAEVVKHKRKRFTVAYLEHHHHHH | not soluble
17 | MSTCTLRFKNDWLKIFTCPVPSSDFLSFVGVATIDAPQHAVLSLLYDIESATEWVWKTREMRVLQELADDNEGRVVYQVVSAPWPVSDREIISRSTAYKDPETGEVFIKIESLPDFIPETSNCVRVRKLEGAWNILPLSENSCRVVFRLHIEPAGEIPSWLANIAVIDTPYHTLNNMRDMVKREKYKNPLEHHHHHH | not soluble
18 | MAHHHHHHMQKSNEKNGPENNAKNGPENNAKNGPENNAKKGPENNAKKGPENNAKKGPENNAKKGPENNAKKGPENKEKKGHSCCGKKGSTGNPKEKKKSDKNSEDNKNSQGDKISKDHAECTPSLHVECAHNCCKKKLAFIYDCWDNFKSYKNIIEQHTKGQQENNFQLQGAGDEDSGEDGGASTTGHSMAMAMPMSFQLSTHTIILFKFWETKTVSRAGIPSQWRLLSGTP | soluble
19 | NIDLDVQNMAQNALKFGYDEIVKRDKDANLSTLNGAMVVVNHQSGDVLALVGGVDYEKSNYNRATQSMRQPGSSFKPFVYQVAINLGYSPMSEIADISRIFEGGAGNNEDWKPKNEGGKFLGLITLKEALTRSRNLATINLALDMGLDVLYSKLMEFGFKDIPPNLSIVLGSFGISPLEYSKFYTMFGNYGTIKDPQIIRQVQDKTGKTIMEFNSNERKVSDEAQSFLVLDMMRNVVEKGTGRNARVKDIEIAGKTGTTNKSVDAWFCGLTPEIEAIIWYGNDNNKPMRYTEGGARTAAPVFREFLTQYIEKFPDTTR | not soluble
20 | MSEPLLRGLAAGDPPSATGPVTGSADKVADVLIVGGGLVGGTLACALAEKGVSVVVIDGEDPEALLAAGYDGRCSAIALACQRLLDTIGLWDLLGGESQPILDIRVVDGGSPLFLHYAQAEAQGPMGYMVENRLLRQAILTRLGRLPAATLLAPARMTALRRDLDGVSATLSDGQTVRARLVVGADGRRSQVRESAGIGIRTLGYGQTAIVLTVEHERSHRGCAVEHFLPAGPFAILPMPGNRSSLVWTERSDLVPGLLALPAEHFQAELERRFGDHLGWVRPVGPRFSYRLTLQAANRYVDHRLALVGDAAHGMHPVAGQGMNYGLRDVAVLAERLVAAQRLGLDPGAPALLAEYEALRRPDNLLMLAITDALVRLFSNDIAPVALARRLGIGAVERMGPLKRLFMRHAMGTLKLGPEPPRLMRGVPLLEHHHHHH | soluble
21 | MAEGGGGVGVVYVLENEAYLSKEGGTLKVSRRAGREVLLQKPLIAVEEIVILGNAVVTPALLKHCAQEGVGIHYLSPTGTYYAGLTRTPSKNAPARVAQFKAYLEPTWKLALAQRFVLGKIRNGLVFLRRNGAEGWERLKEALLEAERAQDEEALRGAEGRAADLYFRAFAELLPEEFAFGERSRRPPRDPANSLLSLAYTLLAKECESALLVAGLDPYVGYLHEVRYGRPSLALDLMEEFRSVLADSVVLSLLNNRRVTLEDFDDSEGFPRLRKEAWPKFLRAWEGRLNERIQHPLLGKRLAYREILLAQARILVKHLLGELPRYEPFAVR | soluble
